# Where “and” joins values, the source holds several entries; their conditions need not be identical. Identical values can stand only once.
# Tests used:
# [1] = biological target: C326A pea porphobilinogen synthase (pea (Pisum sativum)); assay: AUC
# [2] = biological target: C326A pea porphobilinogen synthase (pea (Pisum sativum)); assay: AUC; remark: listed apart in the source
# [3] = biological target: C326A pea porphobilinogen synthase (pea (Pisum sativum)); assay: native gel or EMSA
# [4] = biological target: C326A pea porphobilinogen synthase (pea (Pisum sativum)); assay: AUC; remark: listed apart in the source
substance,measurement,setting,value
C326A pea porphobilinogen synthase (enzyme),stoichiometry N,[1],6 and 8
same,stoichiometry N,[2],8 and 6
same,stoichiometry N,[3],8
same,stoichiometry N,[4],8

# Source: article PMC2559947
